Test results as given in CN108727489A (GUANGZHOU 8TH PEOPLES HOSPITAL; UNIV TSINGHUA, dated 2018).

Tests used:
E-His 6 融合蛋白 = biological target: T1, E-His 6 融合蛋白 (Zika virus, UniProt A0A024B7W1 292-693); assay: ELISA screen of memory B cell culture supernatants on coated E-His6 fusion protein
T1 construct: Expressed in 293T cells, purified on a Ni column and by gel filtration; Used as the ELISA coating antigen; also called E-His6 fusion protein; 寨卡病毒的E蛋白

[1] = biological target: 寨卡病毒GZ01株的E蛋白 (on virus particles) (Zika virus GZ01 strain); assay: cell-based or functional assay

T1 sequence (A0A024B7W1 292-693, tags left off): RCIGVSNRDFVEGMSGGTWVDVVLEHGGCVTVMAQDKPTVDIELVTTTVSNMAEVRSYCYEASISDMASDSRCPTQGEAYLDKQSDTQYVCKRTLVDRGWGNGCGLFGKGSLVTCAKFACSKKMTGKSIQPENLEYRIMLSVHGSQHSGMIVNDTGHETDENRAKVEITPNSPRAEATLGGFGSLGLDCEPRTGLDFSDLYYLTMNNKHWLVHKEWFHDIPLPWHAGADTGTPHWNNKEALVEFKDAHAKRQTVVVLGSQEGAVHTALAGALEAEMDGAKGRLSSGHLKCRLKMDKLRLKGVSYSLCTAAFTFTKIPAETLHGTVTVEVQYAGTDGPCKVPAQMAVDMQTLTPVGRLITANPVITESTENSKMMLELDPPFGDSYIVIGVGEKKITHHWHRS

B1: ZK2C2 (antibody, human IgG1, lambda, V domains shown)
VH: EVQLLESGGGVVQPGRSLRLSCAGSGFTFSSYGMHWVRQAPGKGLEWVAVISYDGSNKYYVDSVKGRFTISRDNSRNTLYLQMNNLKAEDTAVYYCAKGHLIDWGQGTLVTVSS
VL: QLVLTQPPSASGTPGQRVTISCSGSSSNIGRNIVNWYQQFPGTTPKLLIYGTNQRPSGVPDRFSGSKSGTSASLAISGLQSEDETNYYCAAWDDSLNGWLFGGGTKLTVLG
notes: also called 单克隆抗体ZK2C2; ZK2C2抗体
Does B1 bind (E-His 6 融合蛋白)?
Result: binds

And the “中和百分比为50%时的抗体浓度 (IC50), plaque reduction on Vero cells” value [1]?
Its value is 3.8 µg/mL.
